Assay results as given in patent publication US20190127468A1 (ONCOIMMUNE, published 2019).

Molecular target: T1, Control IgG1-Fc (human, UniProt P01857-1 99-330 = IgG part, limits assumed)
T1 construct: domain: Fc; also called hIg-Fc; hIgG
Experiment: ELISA, plate-coated IgG1-Fc, biotinylated B7-1

B1: human B7-1 Fc fusion protein (Fc fusion, UniProt P33681 35-242, looked up)
chain: VIHVTKEVKEVATLSCGHNVSVEELAQTRIYWQKEKKMVLTMMSGDMNIWPEYKNRTIFDITNNLSIVILALRPSDEGTYECVVLKYEKDAFKREHLAEVTLSVKADFPTPSISDFEIPTSNIRRIICSTSGGFPEPHLSWLENGEELNAINTTVSQDPETELYAVSSKLDFNMTTNHSFMCLIKYGHLRVNQTFNWNTTKQEHFPDN
notes: also called B7-1 Ig; B7-1 Ig fusion protein; not shown: Fc portion, not described
Q: Does B1 bind?
A: Result: no binding
